System: human SAH hydrolase
Assay: SAH hydrolase activity assay, hydrolytic direction (kinetic constants for SAH)
Format: biochemical
Conditions: substrate SAH; wild type vs mutant SAH hydrolase
Protocol: The cell-free extracts from colonies that inducibly overexpressed mutant SAH hydrolase proteins were chromatographed on a monoQ column (HR5/5) equipped with FPLC system. Proteins were eluted with a linear gradient of NaCl from 0 to 1 M in 10 mM sodium phosphate buffer, pH 7.0 over 35 min. The major protein peak that eluted at the same or close retention time as that of the wild type SAH hydrolase was collected. An aliquot collected mutant SAH hydrolase (1-10 μg) was incubated with [^3H]SAH (10 mCi/mmole, 200 μM) and 30 μM of 5, 5′-dithiobis (2-nitrobenzoic acid) (DTNB) at room temperature for 5-30 min.
The reaction solution was filtered through a membrane of molecular weight cut-off at 30,000 by centrifugation. The filtrate was measured at 412 nm for Hcy formation (enzyme activity) and the [^3H] radioactivity on the membrane was measured by scintillation counting after membrane washing with 1 ml of 50 mM phosphate buffer, pH 7.0.
The mutant hydrolases that show high radioactivity on the membrane and low O.D. at 412 nm of the filtrate relative to the wild type enzyme were selected as candidates for further characterization including determination of Km or Kd and binding energy (ΔG).
The assay of SAH hydrolase activity in the hydrolytic direction was performed as described in Yuan et al., J. Biol Chem., 271:28008-28016, 1996). The assay measures the hydrolysis of SAH into Ado and Hcy. The reaction product Hcy was derivatized by thiol specific reagent DTNB for colometric determination at 412 nm. The assay for SAH hydrolase in the synthetic direction was measured by the formation of SAH from substrate Ado and Hcy using HPLC (see, Yuan et al., J. Biol. Chem., 268:17030-17037 (1993). One unit of the enzyme activity was defined as the amount of enzyme that can hydrolyze or synthesize 1 μmole of SAH/min/mg.

B1: F302S: mutant human SAH hydrolase, Phe302 to Ser; substrate trapping enzyme (protein, UniProt P23526 2-432, looked up, variant F302S)
Adenosylhomocysteinase: SDKLPYKVADIGLAAWGRKALDIAENEMPGLMRMRERYSASKPLKGARIAGCLHMTVETAVLIETLVTLGAEVQWSSCNIFSTQDHAAAAIAKAGIPVYAWKGETDEEYLWCIEQTLYFKDGPLNMILDDGGDLTNLIHTKYPQLLPGIRGISEETTTGVHNLYKMMANGILKVPAINVNDSVTKSKFDNLYGCRESLIDGIKRATDVMIAGKVAVVAGYGDVGKGCAQALRGFGARVIITEIDPINALQAAMEGYEVTTMDEACQEGNIFVTTTGCIDIILGRHFEQMKDDAIVCNIGHSDVEIDVKWLNENAVEKVNIKPQVDRYRLKNGRRIILLAEGRLVNLGCAMGHPSFVMSNSFTNQVMAQIELWTHPDKYPVGVHFLPKKLDEAVAEAHLGKLNVKLTKLTEKQAQYLGMSCDGPFKPDHYRY
**Q.** With B1 as the molecule, how does the “Kcat (SAH)” value read?
**A.** 0.1 S^−1

**Q.** What about the Km of the same molecule?
**A.** 1 µM

B2: wild type: wild type human placental SAH hydrolase (SEQ ID No. 1), recombinant from E. coli (protein, listed as Homo sapiens)
chain: MSDKLPYKVADIGLAAWGRKALDIAENEMPGLMRMRERYSASKPLKGARIAGCLHMTVETAVLIETLVTLGAEVQWSSCNIFSTQNHAAAAIAKAGIPVYAWKGETDEEYLWCIEQTLYFKDGPLNMILDDGGDLTNLIHTKYPQLLPGIRGISEETTTGVHNLYKMMANGILKVPAINVNDSVTKSKFDNLYGCRESLIDGIKRATDVMIAGKVAVVAGYGDVGKGCAQALRGFGARVIITEIDPINALQAAMEGYEVTTMDEACQEGNIFVTTTGCIDIILGRHFEQMKDDAIVCNIGHFDVEIDVKWLNENAVEKVNIKPQVDRYRLKNGRRIILLAEGRLVNLGCAMGHPSFVMSNSFTNQVMAQIELWTHPDKYPVGVHFLPKKLDEAVAEAHLGKLNVKLTKLTEKQAQYLGMSCDGPFKPDHYRY
modifications: Human S-adenosylhomocysteine hydrolase protein sequence
**Q.** For B2, which “Kcat (SAH)” value is on record?
**A.** 3.8 S^−1

**Q.** What about the Km of the same molecule?
**A.** 7.9 µM

Source: patent US6376210B1, “Methods and compositions for assaying analytes” (General Atomics, priority 1999, dated 2002)
